Molecular target: KEAP1_(312–624), human KEAP1 Kelch repeat domain (human) (UniProt Q14145)
Experiment: fluorescence polarisation

B1: Nrf2_(34–100) E82A (domain or fragment)
chain: REVFDFSQRRKEYELEKQKKLEKERQEQLQKEQEKAFFAQLQLDEETGAFLPIQPAQHIQSETSGSA
Kd: 22 µM

B2: Nrf2_(34–100) F83A (domain or fragment)
chain: REVFDFSQRRKEYELEKQKKLEKERQEQLQKEQEKAFFAQLQLDEETGEALPIQPAQHIQSETSGSA
Kd: 0.018 µM

B3: Nrf2_(34–100) T80S (domain or fragment)
chain: REVFDFSQRRKEYELEKQKKLEKERQEQLQKEQEKAFFAQLQLDEESGEFLPIQPAQHIQSETSGSA
KD ratio to wild type (KD^T80S/KD^WT): 30

B4: Nrf2_(1–100) (domain or fragment)
chain: MMDLELPPPGLPSQQDMDLIDILWRQDIDLGVSREVFDFSQRRKEYELEKQKKLEKERQEQLQKEQEKAFFAQLQLDEETGEFLPIQPAQHIQSETSGSA
Kd: 0.01 µM

B5: Nrf2_(34–100) wild type (domain or fragment)
chain: REVFDFSQRRKEYELEKQKKLEKERQEQLQKEQEKAFFAQLQLDEETGEFLPIQPAQHIQSETSGSA
Kd: 0.01 µM

B6: Nrf2_(34–100) D77A (domain or fragment)
chain: REVFDFSQRRKEYELEKQKKLEKERQEQLQKEQEKAFFAQLQLAEETGEFLPIQPAQHIQSETSGSA
Kd: 4.4 µM

B7: Nrf2_(34–100) E78A (domain or fragment)
chain: REVFDFSQRRKEYELEKQKKLEKERQEQLQKEQEKAFFAQLQLDAETGEFLPIQPAQHIQSETSGSA
Kd: 0.025 µM

B8: Nrf2_(34–100) E79A (domain or fragment)
chain: REVFDFSQRRKEYELEKQKKLEKERQEQLQKEQEKAFFAQLQLDEATGEFLPIQPAQHIQSETSGSA
Kd: 1.7 µM

B9: Nrf2_(34–100) T80A (domain or fragment)
chain: REVFDFSQRRKEYELEKQKKLEKERQEQLQKEQEKAFFAQLQLDEEAGEFLPIQPAQHIQSETSGSA
Kd: 26 µM
